Test [1] addresses PhiPA3 ChmC (Chimallin C, gp61), full-length (bacteriophage PhiPA3). The test is described as follows: SEC-MALS. On the technique in general: Size exclusion chromatography separates by hydrodynamic size, large species first.
For test [2], the target named is PhiPA3 ChmC-ΔC (residues 204-251 removed) (bacteriophage PhiPA3). Briefly: SEC-MALS.

Usually stoichiometry N stands for the number of molecules, sites or subunits per partner or assembly. In test [1], “PhiPA3 ChmC (Chimallin C, gp61), full-length (natural protein)” displayed a stoichiometry N of 4.
Regarding “PhiPA3 ChmC-ΔC (residues 204-251 removed) (domain or fragment)”, the stoichiometry N in test [2] was determined as 4.

Source of the values: paper PMC11077065.
